# Values joined by “and” are separate entries in the source; they are usually repeats but may differ in a detail not shown here. Equal entries are not always repeated. “Also recorded” adds a separate entry of the source. No end group written: not given here.
# Legend:
# NLRP1 [1] = target: T1, NLRP1 (Homo sapiens, UniProt Q9C000); experiment: in vitro reconstituted NLRP1 inflammasome: Caspase-1 activity by hydrolysis of Ac-WEHD-AMC; format: biochemical; conditions: for IC50: synthetic Bcl-2 peptides, various amounts, sigmoidal fit, read-out: IC50 (concentration to inhibit NLRP1-induced Caspase-1 activity by 50%); for concentration-dependence of inhibition of NLRP1-induced Caspase-1 activity: various concentrations of protein or peptide, NLRP1 8.5 nM; for Km: GST-Bcl-2 or GST-Bcl-XL 2 nM, control without inhibitor 2.62±0.35 μM, read-out: Km of Caspase-1 for its substrate Ac-WEHD-AMC in presence of inhibitor; for reduction of affinity (Km) of Caspase-1 for Ac-WEHD-AMC compared to control: in presence of Bcl-2 or Bcl-XL; for Ki: recombinant GST-fusion protein, calculated from Km with/without 2 nM inhibitor, competitive inhibition equation, read-out: inhibitory constant (Ki) for suppression of NLRP1 (NLRP1-induced Caspase-1 activation); for mechanism of NLRP1 inhibition (Lineweaver-Burke analysis): x-axis intercept changed, y-axis intercept unchanged
# T1 sequence (Q9C000 1-1473): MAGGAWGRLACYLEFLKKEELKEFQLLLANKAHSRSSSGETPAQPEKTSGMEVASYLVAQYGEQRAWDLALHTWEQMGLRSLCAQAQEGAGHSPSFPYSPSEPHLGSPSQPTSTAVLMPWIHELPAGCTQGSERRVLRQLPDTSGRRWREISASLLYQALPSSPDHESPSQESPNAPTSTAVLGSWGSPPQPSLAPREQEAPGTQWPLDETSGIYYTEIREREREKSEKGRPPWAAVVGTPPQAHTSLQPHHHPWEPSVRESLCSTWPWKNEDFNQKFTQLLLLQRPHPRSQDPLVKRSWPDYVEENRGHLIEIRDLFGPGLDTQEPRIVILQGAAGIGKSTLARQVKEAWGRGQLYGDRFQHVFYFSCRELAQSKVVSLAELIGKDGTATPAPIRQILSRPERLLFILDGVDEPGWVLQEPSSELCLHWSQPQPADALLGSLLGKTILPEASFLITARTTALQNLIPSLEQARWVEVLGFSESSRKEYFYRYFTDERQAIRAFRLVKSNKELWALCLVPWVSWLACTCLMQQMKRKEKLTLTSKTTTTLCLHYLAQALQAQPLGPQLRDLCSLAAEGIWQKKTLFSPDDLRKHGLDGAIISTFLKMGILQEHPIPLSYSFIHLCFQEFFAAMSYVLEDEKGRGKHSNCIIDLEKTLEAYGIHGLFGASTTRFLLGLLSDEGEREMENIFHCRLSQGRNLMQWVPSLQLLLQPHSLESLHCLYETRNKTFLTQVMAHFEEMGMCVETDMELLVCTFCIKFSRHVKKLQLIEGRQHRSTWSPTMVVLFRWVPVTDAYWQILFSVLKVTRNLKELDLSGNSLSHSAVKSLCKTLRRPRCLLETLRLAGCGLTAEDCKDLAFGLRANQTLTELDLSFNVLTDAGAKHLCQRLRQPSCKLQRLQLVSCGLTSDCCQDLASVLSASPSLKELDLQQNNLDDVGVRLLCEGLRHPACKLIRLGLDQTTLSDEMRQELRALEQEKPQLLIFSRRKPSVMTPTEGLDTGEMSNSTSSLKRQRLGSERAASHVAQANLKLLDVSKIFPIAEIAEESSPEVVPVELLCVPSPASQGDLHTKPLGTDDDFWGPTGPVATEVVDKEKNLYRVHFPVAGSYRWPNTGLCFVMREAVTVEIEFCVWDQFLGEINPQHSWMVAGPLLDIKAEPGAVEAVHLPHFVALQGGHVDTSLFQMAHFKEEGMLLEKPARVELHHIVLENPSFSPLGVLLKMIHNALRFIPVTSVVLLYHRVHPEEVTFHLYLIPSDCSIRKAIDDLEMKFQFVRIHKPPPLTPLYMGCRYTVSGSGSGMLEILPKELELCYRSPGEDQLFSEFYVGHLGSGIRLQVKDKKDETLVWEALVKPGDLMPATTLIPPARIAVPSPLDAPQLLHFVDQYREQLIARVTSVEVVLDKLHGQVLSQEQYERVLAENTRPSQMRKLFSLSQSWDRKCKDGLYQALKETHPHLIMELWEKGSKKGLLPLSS
# NLRP1ΔLRR = experiment: Caspase-1 activation by NLRP1ΔLRR mutant; format: biochemical; conditions: peptide 50 nM; Ac-WEHD-CHO 10 nM; NLRP1ΔLRR 8.5 nM
# Method: (§1) FIGS. 16A-16E show Bcl-2 Loop peptide inhibits NLRP1. […] Asterisk indicates p<0.05. (B) Purified active p10/p20 Caspase-1 (5 nM) was incubated with or without Bcl-2 Loop peptide 35-83 or Ac-WEHD-CHO (10 nM). […] Asterisks indicate p<0.05.
# To characterize the sequence of the Bcl-2 loop responsible for inhibiting NLRP1, a series of overlapping 20′mer peptides corresponding to the 35-83 region were synthesized and tested their effects on NLRP1-mediated Caspase-1 activation. […] The effects of the full-loop peptide (35-83) and the active segment (71-90) were specific, as determined by experiments using a NLRP1 mutant lacking the LRRs. […] Finally, the concentration-dependence of NLRP1 inhibition by the 35-83 and 71-90 loop peptides were compared.
# Caspase-1 = target: T2, Caspase-1 (Homo sapiens, UniProt P29466); experiment: activity of purified active p10/p20 Caspase-1 (direct effect); format: biochemical; conditions: active p10/p20 Caspase-1 5 nM; test protein/peptide at excess; Ac-WEHD-CHO 10 nM
# T2 construct: fully active, proteolytically processed Caspase-1 comprised of p20 and p10 catalytic subunits purified from bacteria; made in house; host or cells: bacteria
# T2 sequence (P29466 120-297 limits assumed): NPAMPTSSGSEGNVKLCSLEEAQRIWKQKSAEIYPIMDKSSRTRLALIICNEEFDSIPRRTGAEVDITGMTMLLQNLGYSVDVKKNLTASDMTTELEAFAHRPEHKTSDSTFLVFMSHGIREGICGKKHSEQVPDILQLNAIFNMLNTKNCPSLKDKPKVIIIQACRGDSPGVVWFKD
# T2 sequence (P29466 317-404 limits assumed): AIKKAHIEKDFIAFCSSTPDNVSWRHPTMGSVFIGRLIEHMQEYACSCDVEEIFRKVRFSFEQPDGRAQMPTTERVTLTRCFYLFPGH
# Method: as §1
# Caspase activity measurements. […] Proteins were mixed in Caspase-1 buffer (100 mM HEPES, [pH 7.5], 10% Sucrose, 0.1% CHAPS, 1 mM Dithiothreitol) in a final volume of 10 μl in 96-well plates. Various activators were added (ATP, Mg^2+, MDP-LD), adjusting final volume with water. Samples were then incubated for 30 min at 37° C. and Caspase-1 activity was measured using 20 μM fluorometric substrate Ac-WEHD-AMC (Calbiochem). Release of AMC product was monitored continuously by spectrofluorometry in kinetic mode over 1 h at 25-27° C. Rates of catalysis were calculated using the initial slope and Caspase activity was expressed as the change in fluorescence over time derived from the linear phase of reactions. Data were analyzed using the PRISM Statistics software, employing an unpaired t test.
# To exclude a direct effect of Bcl-2 and Bcl-XL on Caspase-1, as opposed to NLRP1, the effects of these anti-apoptotic proteins were tested on fully active, proteolytically processed Caspase-1 comprised of p20 and p10 catalytic subunits purified from bacteria (FIG. 11).
# NLRP1 [2] = target: T1, NLRP1; experiment: FITC-ATP binding to NLRP1 by fluorescence polarization assay (FPA); conditions: protein 1 μM at excess; NLRP1 0.125 μM; FITC-ATP 10 nM; MDP-LD 1 μM
# NLRP1 [3] = target: T1, NLRP1; experiment: NLRP1-mediated proteolytic processing of pro-Caspase-1 (anti-p10 immunoblot); format: biochemical; conditions: molar ratio NLRP1/protein 1/5
# NLRP1 [4] = target: T1, NLRP1; experiment: NLRP1 oligomerization induced by MDP and ATP, 2D native/SDS gel electrophoresis; format: biochemical; conditions: protein at excess (1/10 molar ratio)
# Method: Electrophoresis. Samples were incubated with protein solubilizing solution (40 mM 6-aminocaproic acid, 20 mM Bis-tris) for 30 min at 4° C., mixed with loading buffer (1M 6-aminocaproic acid, 5% Serva blue G), and applied to acrylamide-bis gradient (4-20%) gels (Schagger et al., (1994) Anal Biochem 217, 220-30). Bands of gels corresponding to the entire lane were excised from top to the bottom, incubated 45 min at 25-27° C. in denaturating buffer (1% β-mercaptoethanol, 10% SDS), then washed twice in equilibrating buffer (50 mM Tris. 1% SDS). Bands from gels were set horizontally on a SDS-acrylamide gel, and proteins were separated by electrophoresis (second dimension), then stained with Sypro Ruby. Molecular weight markers included Thyroglobuline, Apoferritin, β-Amylase and BSA (Sigma).
# Oligomerization of NLRP1 induced by MDP and ATP can be monitored using 2D gel-electrophoresis analysis, in which the first dimension is non-denaturing and thus preserves macromolecular complexes during electrophoresis and the second dimension contains SDS for subsequent identification of proteins based on their known molecular mass (Faustin, 2007). For these experiments, NLRP1 monomers were incubated with various proteins (GST, GST-Bcl-XL, His6-Bcl-XLΔLoop) at excess, then MDP and ATP were added to induce oligomerization (FIG. 15). […]
Substance,IC50 (NLRP1 [1]),concentration-dependence of inhibition of NLRP1-induced Caspase-1 activity (NLRP1 [1]),Caspase-1 activation by NLRP1ΔLRR (NLRP1ΔLRR),direct effect on activity of fully active processed Caspase-1 (Caspase-1),reduction of FITC-ATP binding to NLRP1 (NLRP1 [2]),MDP/ATP-induced proteolytic processing of pro-Caspase-1 to cleaved p10 subunit (NLRP1 [3]),Km (NLRP1 [1]),reduction of affinity (Km) of Caspase-1 for Ac-WEHD-AMC compared to control (NLRP1 [1]),Ki (NLRP1 [1]),mechanism of NLRP1 inhibition (Lineweaver-Burke analysis) (NLRP1 [1]),oligomerization of NLRP1 induced by MDP/ATP (NLRP1 [4])
PLQTPAAPGAAAGPALSPVP [Bcl-2 71-90],9.92 nM and ~10 nM,reducing Caspaes-1 activity to background levels,neither the 35-83 nor the 71-90 loop peptides suppressed Caspase-1 activation by NLRP1ΔLRR,–,–,–,–,–,–,–,–
VGAAPPGAAPAPGIFSSQPGHTPHPAASRDPVARTSPLQTPAAPGAAAG [Bcl-2 Loop 35-83],11.4 nM and ~12 nM,reducing Caspaes-1 activity to background levels,neither the 35-83 nor the 71-90 loop peptides suppressed Caspase-1 activation by NLRP1ΔLRR,did not directly inhibit Caspase-1,–,–,–,–,–,–,–
Bcl-2: anti-apoptotic protein; recombinant GST-fusion lacking C-terminal transmembrane domain (SEQ ID NO:3/4),–,essentially complete inhibition,–,neither Bcl-2 nor Bcl-XL suppressed Caspase-1 activity,~60%,inhibited,5.04 ± 0.5 µM,2 fold,~10 nM and 8.23 nM and 10 nM,competitive inhibitors of NLRP1,–
"acetyl-Tryptophanyl-Glutamyl-Histidinyl-Aspartyl-aldehyde (Ac-WEHD-aldehyde; SMILES CC(=O)N[C@@H](Cc1c[nH]c2ccccc12)C(=O)N[C@@H](CCC(=O)O)C(=O)N[C@@H](Cc1c[nH]cn1)C(=O)N[C@H](C=O)CC(=O)O) [Ac-WEHD-CHO, reference compound]",–,–,completely neutralized Caspase-1 activity,completely inhibited; also recorded: potently suppressed the activity of this protease,–,–,–,–,–,–,–
"YDNREIVMKYIHYKLSQRGYEW (Synthetic Bcl-2 Loop peptides) [Bcl-2 BH4 domain 9-30, control peptide, reference compound]",–,negligible activity,–,–,–,–,–,–,–,–,–
GST: control protein [reference compound],–,–,–,–,negligible effects,–,–,–,–,–,not affected
Bcl-XL: anti-apoptotic protein; recombinant GST-fusion lacking C-terminal transmembrane domain,–,essentially complete inhibition,–,neither Bcl-2 nor Bcl-XL suppressed Caspase-1 activity,~60%,inhibited,6.05 ± 0.24 µM,2 fold,~10 nM and 10 nM,competitive inhibitors of NLRP1,suppressed oligomerization of NLRP1
